Test results reported in IntAct's records for PubMed 24290140.

Target: Fhl1, P97447-2
Sequence (P97447 other isoform, or with tags, fused parts or gaps): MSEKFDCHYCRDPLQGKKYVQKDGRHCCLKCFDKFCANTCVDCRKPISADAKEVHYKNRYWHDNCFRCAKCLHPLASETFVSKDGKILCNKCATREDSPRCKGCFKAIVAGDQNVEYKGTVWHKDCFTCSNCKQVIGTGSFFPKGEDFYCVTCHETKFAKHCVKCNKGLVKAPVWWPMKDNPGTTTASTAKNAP

Chain of Recombining binding protein suppressor of hairless (Mus musculus), P31266 A284R (P31266 whole entry A284R): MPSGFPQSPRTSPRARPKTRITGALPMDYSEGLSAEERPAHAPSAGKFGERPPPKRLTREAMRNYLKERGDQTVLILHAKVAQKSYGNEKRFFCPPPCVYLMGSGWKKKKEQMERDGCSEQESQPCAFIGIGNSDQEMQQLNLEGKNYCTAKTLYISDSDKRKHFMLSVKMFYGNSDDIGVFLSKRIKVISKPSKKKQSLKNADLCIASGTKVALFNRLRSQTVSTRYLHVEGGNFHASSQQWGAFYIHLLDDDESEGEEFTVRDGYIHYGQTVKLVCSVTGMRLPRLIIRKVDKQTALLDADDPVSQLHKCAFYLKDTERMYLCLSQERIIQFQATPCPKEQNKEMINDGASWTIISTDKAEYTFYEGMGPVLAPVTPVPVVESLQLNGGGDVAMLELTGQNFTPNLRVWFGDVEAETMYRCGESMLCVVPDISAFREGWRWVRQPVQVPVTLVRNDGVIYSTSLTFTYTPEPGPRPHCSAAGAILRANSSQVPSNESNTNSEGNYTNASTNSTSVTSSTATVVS
Chain of Recombining binding protein suppressor of hairless (Mus musculus), P31266 F261R (P31266 whole entry F261R): as the sequence (P31266 whole entry A284R) above, with F261R, R284A counted along it

| Substance | effect of a mutation on the interaction |
| --- | --- |
| Recombining binding protein suppressor of hairless (Mus musculus), P31266 A284R | decreasing interaction strength |
| Recombining binding protein suppressor of hairless (Mus musculus), P31266 F261R | decreasing interaction strength |
